Data published in FireProtDB (doi:10.1111/febs.12694).
“And” between values parts separate entries of the source, which are not always exact repeats. Equal entries are not always repeated.

Conditions: Halobacterium salinarum (strain ATCC 700922 / JCM 11081 / NRC-1), Thermal, transition: 2, whole UniProt chain shown

B1: Bacteriorhodopsin wild type, P02945 (protein)
chain: MLELLPTAVEGVSQAQITGRPEWIWLALGTALMGLGTLYFLVKGMGVSDPDAKKFYAITTLVPAIAFTMYLSMLLGYGLTMVPFGGEQNPIYWARYADWLFTTPLLLLDLALLVDADQGTILALVGADGIMIGTGLVGALTKVYSYRFVWWAISTAAMLYILYVLFFGFTSKAESMRPEVASTFKVLRNVTVVLWSAYPVVWLIGSEGAGIVPLNIETLLFMVLDVSAKVGFGLILLRSRAIFGEAEAPEPSAGDGAAATSD
- Tm (pH 3.5, DSC): 76.6 °C
- Tm (pH 4, UV spectroscopy): 69.2 °C and 67 °C
- Tm (pH 7, DSC): 98.2 °C
- Tm (pH 7, UV spectroscopy): 90.5 °C
- Tm (pH 9, DSC): 94.5 °C
- Tm (pH 9.5, UV spectroscopy, glycine buffer): 86 °C
